T1: SCD1, released from the linker-cleaved SCD1-cyt b5 fusions (mouse, UniProt P13516 1-355)
T1 construct: stearoyl-CoA desaturase-1 (SCD1), mouse, UniProt P13516; stands for the SCD1 chain of the fusion with full-length cyt b5 (wild type and TM mutants) and of the fusion with the soluble domain of cyt b5; the GFP tag stood at the C-terminus of the fusion; surmised: ENLYFQ is left at the C-terminus after cleavage
T1 sequence (looked up): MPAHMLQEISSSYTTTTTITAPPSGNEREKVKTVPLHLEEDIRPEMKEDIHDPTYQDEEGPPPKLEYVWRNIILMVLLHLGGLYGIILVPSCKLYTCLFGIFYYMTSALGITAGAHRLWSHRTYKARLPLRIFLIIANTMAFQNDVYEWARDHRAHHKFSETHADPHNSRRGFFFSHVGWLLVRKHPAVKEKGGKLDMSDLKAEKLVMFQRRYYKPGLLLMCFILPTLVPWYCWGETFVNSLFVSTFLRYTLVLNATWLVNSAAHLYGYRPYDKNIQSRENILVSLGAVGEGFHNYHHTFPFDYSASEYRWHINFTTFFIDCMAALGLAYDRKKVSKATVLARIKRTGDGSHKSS

T2: SCD1, released from the linker-cleaved SCD1-cyt b5-b5R fusions (mouse, UniProt P13516 1-355)
T2 construct: stearoyl-CoA desaturase-1 (SCD1), mouse, UniProt P13516; stands for the SCD1 chain of the ternary fusion of the full-length proteins and of the sample with soluble cyt b5 and b5R; surmised: linker residues are left after TEV cleavage; not shown: GFP, N-terminal, cleaved
T2 sequence (looked up): T1 sequence (looked up)

B1: full-length cyt b5, released from the linker-cleaved SCD1-cyt b5 fusion (natural protein, mouse, UniProt P56395 1-134, looked up)
chain: MAGQSDKDVKYYTLEEIQKHKDSKSTWVILHHKVYDLTKFLEEHPGGEEVLREQAGGDATENFEDVGHSTDARELSKTYIIGELHPDDRSKIAKPSDTLITTVESNSSWWTNWVIPAISALAVALMYRLYMAED
notes: cytochrome b5, mouse, UniProt P56395; surmised: G at the N-terminus and ENLYFQ at the C-terminus are left after TEV cleavage; not shown: GFP, C-terminal, cleaved
B2: full-length cyt b5, released from the linker-cleaved SCD1-cyt b5-b5R fusion (natural protein, mouse, UniProt P56395 1-134, looked up)
chain: B1 chain
notes: cytochrome b5, mouse, UniProt P56395; surmised: linker residues are left after TEV cleavage

Tests used:
[1] = biological target: T1, SCD1, released from the linker-cleaved …; experiment: SEC; binary fusion protein purified, linker cleaved by TEV protease, Superdex 200 10/300 GL in 20 mM HEPES pH 7.5, 150 mM NaCl, 1 mM DDM; elution compared with the tethered fusion; settings: both partners purified
[2] = biological target: T2, SCD1, released from the linker-cleaved …; experiment: SEC; ternary fusion SCD1-cyt b5-b5R purified, linkers cleaved by TEV protease, Superdex 200 10/300 GL in 20 mM HEPES pH 7.5, 150 mM NaCl, 1 mM DDM; three proteins in the sample; settings: both partners purified

binding result [1]	binding result [2]	Binder
binds	–	B1
–	binds	B2
